The record followed here is US20130012432A1 (Novo Nordisk, published 2013).

Positions of bridges follow the written chain, without caps; N, C: chain ends. Non-standard residues stand in square brackets, D forms with d. Groups on a side chain read outwards from the residue. Primed or numbered codes have the meaning given here. *: point of attachment. X2 = (2-(2-(16-(tetrazol-5-yl)hexadecanoylamino)ethoxy)ethoxy)acetyl, O=C(CCCCCCCCCCCCCCCc1nn[nH]n1)NCCOCCOCC(=O)*; X6 = (2-(2-(17-carboxyheptadecanoylamino)ethoxy)ethoxy)acetyl, O=C(O)CCCCCCCCCCCCCCCCC(=O)NCCOCCOCC(=O)*; X3 = (2-(2-(15-carboxypentadecanoylamino)ethoxy)ethoxy)acetyl, O=C(O)CCCCCCCCCCCCCCC(=O)NCCOCCOCC(=O)*; X4 = (2-(2-(16-carboxyhexadecanoylamino)ethoxy)ethoxy)acetyl, O=C(O)CCCCCCCCCCCCCCCC(=O)NCCOCCOCC(=O)*; biscarboxymethyl = Lys(biscarboxymethyl) = Nepsilon-bis(carboxymethyl)-L-lysine; biscarboxymethyl(4) = Lys(biscarboxymethyl) = N6-bis(carboxymethyl)-L-lysine; bis(carboxymethyl) = Lys(biscarboxymethyl) = N6-bis(carboxymethyl)-L-lysine; Palmitoyl(16-(5-tetrazolyl)) = O=C(CCCCCCCCCCCCCCCc1nnn[nH]1)*; biscarboxymethyl(3) = Nepsilon-bis(carboxymethyl) on Lys; biscarboxymethyl″ = N6-bis(carboxymethyl) on L-lysine; Lys(CH2CO2H)2 = N[C@@H](CCCCN(CC(=O)O)CC(=O)O)C(=O)O; C18 diacid = O=C(O)CCCCCCCCCCCCCCCCC(=O)*; C16 diacid = O=C(O)CCCCCCCCCCCCCCC(=O)*; Hyp = O=C(O)[C@@H]1C[C@@H](O)CN1; NTA = O=C(O)CN(CC(=O)O)CC(=O)*; hCys = N[C@@H](CCS)C(=O)O; Orn = NCCC[C@H](N)C(=O)O; Dab = NCC[C@H](N)C(=O)O; Dap = NC[C@H](N)C(=O)O; AEEA = NCCOCCOCC(=O)O

The target of one experiment is T1, human MC4 receptor (human, UniProt P32245 1-332).
T1 construct: whole, on cells; Assayed as membranes of BHK cells stably expressing the receptor; also called melanocortin receptor subtype 4; melanocortin receptor 4
Kind of experiment: 125I-NDP-α-MSH displacement, BHK-human MC4 membranes (Assay V).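 Further: Filter-retained radioactivity read by gamma counting, with affinity obtained through non-linear regression fitting of the binding curves.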

The next experiment addresses T2, MC1 receptor (UniProt Q01726 1-317, limits assumed).
T2 construct: whole, on cells; also called melanocortin receptor subtype 1; melanocortin receptor 1
Kind of experiment: 125I-NDP-α-MSH displacement, BHK-MC1 membranes (Assay IV).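 Further: membrane incubations stopped by filtration, retained radioactivity counted, Ki fitted by nonlinear regression to binding curves.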

T1 sequence (P32245 whole entry): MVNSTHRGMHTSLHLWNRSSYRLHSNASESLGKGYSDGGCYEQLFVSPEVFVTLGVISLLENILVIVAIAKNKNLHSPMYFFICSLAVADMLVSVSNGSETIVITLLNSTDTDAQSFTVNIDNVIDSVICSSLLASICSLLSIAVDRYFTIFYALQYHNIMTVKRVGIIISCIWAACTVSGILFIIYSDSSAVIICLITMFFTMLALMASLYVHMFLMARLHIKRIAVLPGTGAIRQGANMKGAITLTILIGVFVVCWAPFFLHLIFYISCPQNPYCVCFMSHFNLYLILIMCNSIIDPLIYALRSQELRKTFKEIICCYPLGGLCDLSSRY
T2 sequence (Q01726 whole entry): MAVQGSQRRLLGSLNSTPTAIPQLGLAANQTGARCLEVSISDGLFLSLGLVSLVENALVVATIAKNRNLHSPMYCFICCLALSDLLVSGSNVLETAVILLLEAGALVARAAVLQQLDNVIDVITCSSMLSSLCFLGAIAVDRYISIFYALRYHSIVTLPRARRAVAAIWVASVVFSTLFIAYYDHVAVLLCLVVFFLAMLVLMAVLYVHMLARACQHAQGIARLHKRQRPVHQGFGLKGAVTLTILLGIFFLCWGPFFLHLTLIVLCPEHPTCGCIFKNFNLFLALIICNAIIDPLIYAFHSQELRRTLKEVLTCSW
Procedure for MC1 receptor: The MC1 receptor binding assay was performed on BHK cell membranes stably expressing the MC1 receptor. […] Test compounds were dissolved in DMSO. […] Alternatively, HSA may be substituted with ovalbumin. The samples were incubated at 30° C. for 90 min. in Costar round-bottom microtiter plates. Incubation was terminated by filtration on a Packard harvester filtermate. […] The filters were washed with ice-cold 0.9% NaCl 8-10 times. […] The plates were counted in a Topcounter (1 min/well).
(§1) The data were analysed by non-linear regression analysis of binding curves, using the Windows™ program GraphPad™ Prism (GraphPad Software, USA).
Procedure for human MC4 receptor: The membranes were prepared from frozen or fresh cells that were homogenized in 20 mM HEPES pH 7.1, 5 mM MgCl₂ and 1 mg/ml bacitracin and centrifuged at 15000 rpm at 4° C., 10 min in a Sorvall RC 5B plus, SS-34 rotor. The supernatant was discarded, and the pellets were re-suspended in buffer, homogenized and centrifuged two more times. The final pellets were resuspended in the buffer mentioned above, and the protein concentration was measured and adjusted with buffer to 14 to 17 mg/ml and the membrane preparation were kept at −80° C. until assay. The assay was run directly on a dilution of this cell membrane suspension, without any further preparation. The BHK cell membranes are kept at −80° C. until assay, and the assay is run directly on a dilution of this cell membrane suspension, without further preparation. The suspension is diluted to give maximally 10% specific binding, i.e. to approx. 50-100 fold dilution. […] Test compounds were dissolved in DMSO and diluted in binding buffer. Radiolabelled ligand and membranes were diluted in binding buffer. The incubation was stopped by dilution with 2×100 μl ice-cold 0.9% NaCl. The radioactivity retained on the filters was counted using a Cobra II auto gamma counter.
as §1

B1: Ac-c[Asp-His-D-Phe-Arg-Trp-Lys]-Pro-Pro-Arg-Asp-Lys(biscarboxymethyl)-Lys[(2-{2-[16-(tetrazol-5-yl)hexadecanoylamino]ethoxy}ethoxy)acetyl]-NH2 (peptide)
peptide: Ac-DH[dF]RWKPPRD[Lys(CH2CO2H)2]K([AEEA-Palmitoyl(16-(5-tetrazolyl))])-NH2
modifications: lactam 1-6
SMILES: CC(=O)N[C@H]1CC(=O)NCCCC[C@@H](C(=O)N2CCC[C@H]2C(=O)N2CCC[C@H]2C(=O)N[C@@H](CCCNC(=N)N)C(=O)N[C@@H](CC(=O)O)C(=O)N[C@@H](CCCCN(CC(=O)O)CC(=O)O)C(=O)N[C@@H](CCCCNC(=O)COCCOCCNC(=O)CCCCCCCCCCCCCCCc2nnn[nH]2)C(N)=O)NC(=O)[C@H](Cc2c[nH]c3ccccc23)NC(=O)[C@H](CCCNC(=N)N)NC(=O)[C@@H](Cc2ccccc2)NC(=O)[C@H](Cc2c[nH]cn2)NC1=O
As usually defined, the Ki is a measure of affinity in units of concentration, obtained from inhibition or displacement. Read a high Ki as weaker binding. In the case of B1, the values for the inhibition constant Ki in the experiment with human MC4 receptor and with MC1 receptor were 13 nM and 279 nM, respectively.
For Ac-EH[dF]RW[Dab]PPRDK(biscarboxymethyl(3))K([AEEA-Palmitoyl(16-(5-tetrazolyl))])-NH2 (lactam 1-6) the same measures were 39 nM and 3420 nM.
Consider Ac-EH[dF]RW[Orn][Hyp][Hyp]RDK(biscarboxymethyl)K(X2)-NH2 (lactam 1-6), for which the Ki with human MC4 receptor came out at 3.25 nM; with MC1 receptor it was 7230 nM.
For Ac-EH[dF]RW[Orn]PPRDK(biscarboxymethyl)K(X3)-NH2 (lactam 1-6), the inhibition constant (Ki) came to 5.8 nM with human MC4 receptor and 3970 nM in the experiment with MC1 receptor.
For Ac-EH[dF]RW[Orn]PPRDK(biscarboxymethyl)K(X2)-NH2 (lactam 1-6) the same measures were 1.42 nM and 5240 nM.

B2: Ac-c[homoCys-His-D-Phe-Arg-Trp-Cys]-Pro-Pro-Lys-Glu-Dap(BCMA)-Lys[(2-{2-[16-(tetrazol-5-yl)hexadecanoylamino]ethoxy}ethoxy)acetyl]-NH2 (peptide)
peptide: Ac-[hCys]H[dF]RWCPPKE[Dap](NTA)K([AEEA-Palmitoyl(16-(5-tetrazolyl))])-NH2
modifications: disulfide 1-6
SMILES: CC(=O)N[C@H]1CCSSC[C@@H](C(=O)N2CCC[C@H]2C(=O)N2CCC[C@H]2C(=O)N[C@@H](CCCCN)C(=O)N[C@@H](CCC(=O)O)C(=O)N[C@@H](CNC(=O)CN(CC(=O)O)CC(=O)O)C(=O)N[C@@H](CCCCNC(=O)COCCOCCNC(=O)CCCCCCCCCCCCCCCc2nnn[nH]2)C(N)=O)NC(=O)[C@H](Cc2c[nH]c3ccccc23)NC(=O)[C@H](CCCNC(=N)N)NC(=O)[C@@H](Cc2ccccc2)NC(=O)[C@H](Cc2c[nH]cn2)NC1=O
Consider B2, for which the Ki in the experiment with human MC4 receptor was determined as 0.6 nM; in the experiment with MC1 receptor, 177 nM.
For Ac-[Orn]H[dF]RWDPSSSK(bis(carboxymethyl))SSK([AEEA-C18 diacid])-NH2 (lactam 1-6) the same measures were 0.8 nM and 141 nM.
As for Ac-[hCys]H[dF]RWCSPHEK(bis(carboxymethyl))K([AEEA-C18 diacid])-NH2 (disulfide 1-6), the Ki was found to be 0.55 nM with human MC4 receptor and 442 nM with MC1 receptor.
On the same counts, the results for Ac-[hCys]H[dF]RWCSPKEK(bis(carboxymethyl))K([AEEA-C16 diacid])-NH2 (disulfide 1-6) are 3.43 nM and 169 nM.
For Ac-[hCys]S[dF]RWCPPKEK(biscarboxymethyl″)K(X2)-NH2 (disulfide 1-6) the same measures were 10 nM and 2060 nM.
Turning to Ac-[Orn]H[dF]RWDPSSSK(biscarboxymethyl)SSK(X3)-NH2 (lactam 1-6), the Ki with human MC4 receptor came to 1.2 nM; in the experiment with MC1 receptor, 3890 nM.

B3: Ac-c[homoCys-His-D-Phe-Arg-Trp-Cys]-Pro-Pro-Lys-Asp-Dap(BCMA)-Lys[(2-{2-[16-(tetrazol-5-yl)hexadecanoylamino]ethoxy}ethoxy)acetyl]-NH2 (peptide)
peptide: Ac-[hCys]H[dF]RWCPPKD[Dap](NTA)K([AEEA-Palmitoyl(16-(5-tetrazolyl))])-NH2
modifications: disulfide 1-6
SMILES: CC(=O)N[C@H]1CCSSC[C@@H](C(=O)N2CCC[C@H]2C(=O)N2CCC[C@H]2C(=O)N[C@@H](CCCCN)C(=O)N[C@@H](CC(=O)O)C(=O)N[C@@H](CNC(=O)CN(CC(=O)O)CC(=O)O)C(=O)N[C@@H](CCCCNC(=O)COCCOCCNC(=O)CCCCCCCCCCCCCCCc2nnn[nH]2)C(N)=O)NC(=O)[C@H](Cc2c[nH]c3ccccc23)NC(=O)[C@H](CCCNC(=N)N)NC(=O)[C@@H](Cc2ccccc2)NC(=O)[C@H](Cc2c[nH]cn2)NC1=O
Regarding B3, the Ki with human MC4 receptor was 0.64 nM; with MC1 receptor, 7540 nM.
Turning to Ac-[Orn]H[dF]RWDPPRDK(biscarboxymethyl)K(X2)-NH2 (lactam 1-6), the Ki was determined as 0.85 nM in the experiment with human MC4 receptor and 2340 nM with MC1 receptor.
For Ac-[Orn]H[dF]RWDPPHEK(biscarboxymethyl)K(X3)-NH2 (lactam 1-6) the same measures were 3.4 nM and 8600 nM.
Consider Ac-[Orn]H[dF]RWDPPHEK(biscarboxymethyl)K(X6)-NH2 (lactam 1-6), for which the results for the Ki with human MC4 receptor and with MC1 receptor were 1.8 nM and 7370 nM, respectively.
On the same counts, the results for Ac-[Orn]H[dF]RWDPSSSK(bis(carboxymethyl))SSK([AEEA-Palmitoyl(16-(5-tetrazolyl))])-NH2 (lactam 1-6) are 0.9 nM and 5610 nM.
On the same counts, the results for Ac-[Orn]H[dF]RWDPPREK(biscarboxymethyl)K(X2)-NH2 (lactam 1-6) are 0.33 nM and 2770 nM.
As for Ac-[Orn]H[dF]RWEPPRDK(bis(carboxymethyl))K([AEEA-Palmitoyl(16-(5-tetrazolyl))])-NH2 (lactam 1-6), the values for the Ki with human MC4 receptor and with MC1 receptor were 3.53 nM and 433 nM, respectively.
For Ac-[Orn]H[dF]RWDPPHEK(biscarboxymethyl)K(X4)-NH2 (lactam 1-6) the same measures were 1.05 nM and 4830 nM.
On the same counts, the results for Ac-[Dab]H[dF]RWDPPRDK(biscarboxymethyl(3))K([AEEA-Palmitoyl(16-(5-tetrazolyl))])-NH2 (lactam 1-6) are 31 nM and 5740 nM.

B4: Ac-c[Dap-His-D-Phe-Arg-Trp-Asp]-Pro-Pro-Arg-Asp-Lys(BCMA)-Lys[(2-{2-[16-(tetrazol-5-yl)hexadecanoylamino]ethoxy}ethoxy)acetyl]-NH2 (peptide)
peptide: Ac-[Dap]H[dF]RWDPPRDK(NTA)K([AEEA-Palmitoyl(16-(5-tetrazolyl))])-NH2
modifications: lactam 1-6
SMILES: CC(=O)N[C@H]1CNC(=O)C[C@@H](C(=O)N2CCC[C@H]2C(=O)N2CCC[C@H]2C(=O)N[C@@H](CCCNC(=N)N)C(=O)N[C@@H](CC(=O)O)C(=O)N[C@@H](CCCCNC(=O)CN(CC(=O)O)CC(=O)O)C(=O)N[C@@H](CCCCNC(=O)COCCOCCNC(=O)CCCCCCCCCCCCCCCc2nnn[nH]2)C(N)=O)NC(=O)[C@H](Cc2c[nH]c3ccccc23)NC(=O)[C@H](CCCNC(=N)N)NC(=O)[C@@H](Cc2ccccc2)NC(=O)[C@H](Cc2c[nH]cn2)NC1=O
With B4, the Ki in the experiment with human MC4 receptor is 8.95 nM; with MC1 receptor, 5550 nM.

B5: Ac-c[Cys-Glu-His-D-Phe-Arg-Trp-Gly-Cys]-Pro-Pro-Lys-Glu-Glu-Lys({2-[2-(15-carboxypentadecanoylamino)ethoxy]ethoxy}acetyl)-NH2 (peptide)
peptide: Ac-CEH[dF]RWGCPPKEEK([AEEA-C16 diacid])-NH2
modifications: disulfide 1-8
SMILES: CC(=O)N[C@H]1CSSC[C@@H](C(=O)N2CCC[C@H]2C(=O)N2CCC[C@H]2C(=O)N[C@@H](CCCCN)C(=O)N[C@@H](CCC(=O)O)C(=O)N[C@@H](CCC(=O)O)C(=O)N[C@@H](CCCCNC(=O)COCCOCCNC(=O)CCCCCCCCCCCCCCC(=O)O)C(N)=O)NC(=O)CNC(=O)[C@H](Cc2c[nH]c3ccccc23)NC(=O)[C@H](CCCNC(=N)N)NC(=O)[C@@H](Cc2ccccc2)NC(=O)[C@H](Cc2c[nH]cn2)NC(=O)[C@H](CCC(=O)O)NC1=O
Turning to B5, the Ki came to 6.2 nM with human MC4 receptor and 7220 nM with MC1 receptor.
For Ac-DH[dF]RW[Dab]PPRDK(biscarboxymethyl(4))K(X2)-NH2 (lactam 1-6) the same measures were 1.33 nM and 5140 nM.
On the same counts, the results for Ac-EH[dF]RW[Orn]PPHDK(biscarboxymethyl)K(X2)-NH2 (lactam 1-6) are 3.58 nM and 5170 nM.
For Ac-DH[dF]RW[Orn]PPRDK(biscarboxymethyl(3))K([AEEA-Palmitoyl(16-(5-tetrazolyl))])-NH2 (lactam 1-6) the same measures were 33 nM and 2540 nM.

B6: Ac-c[Asp-His-D-Phe-Arg-Trp-Dap]-Pro-Pro-Arg-Asp-Lys(BCMA)-Lys[(2-{2-[16-(tetrazol-5-yl)hexadecanoylamino]ethoxy}ethoxy)acetyl]-NH2 (peptide)
peptide: Ac-DH[dF]RW[Dap]PPRDK(NTA)K(X2)-NH2
modifications: lactam 1-6
SMILES: CC(=O)N[C@H]1CC(=O)NC[C@@H](C(=O)N2CCC[C@H]2C(=O)N2CCC[C@H]2C(=O)N[C@@H](CCCNC(=N)N)C(=O)N[C@@H](CC(=O)O)C(=O)N[C@@H](CCCCNC(=O)CN(CC(=O)O)CC(=O)O)C(=O)N[C@@H](CCCCNC(=O)COCCOCCNC(=O)CCCCCCCCCCCCCCCc2nn[nH]n2)C(N)=O)NC(=O)[C@H](Cc2c[nH]c3ccccc23)NC(=O)[C@H](CCCNC(=N)N)NC(=O)[C@@H](Cc2ccccc2)NC(=O)[C@H](Cc2c[nH]cn2)NC1=O
For B6, the Ki with human MC4 receptor stood at 107 nM; with MC1 receptor, 7980 nM.
